One molecule from patent US20190177410A1 can be followed below.

For experiment [1], the target named is full-length human APLNR (hAPLNR) (human) (UniProt P35414). The experiment is described as follows: FACS on HEK293/CRE-luc/hAPLNR cells.
Experiment [2] has the same target. The experiment in a line: cell-based or functional assay.
The target of experiment [3] is human Apelin receptor (hAPLNR) of PathHunter eXpress AGTRL1 CHO-K1 beta-Arrestin cells (human) (UniProt P35414). The experiment in a line: cell-based or functional assay.
Experiment [4] deals with T1, full length cynomolgus APLNR (MfAPLNR) (cynomolgus (Macaca fascicularis)).
T1 sequence: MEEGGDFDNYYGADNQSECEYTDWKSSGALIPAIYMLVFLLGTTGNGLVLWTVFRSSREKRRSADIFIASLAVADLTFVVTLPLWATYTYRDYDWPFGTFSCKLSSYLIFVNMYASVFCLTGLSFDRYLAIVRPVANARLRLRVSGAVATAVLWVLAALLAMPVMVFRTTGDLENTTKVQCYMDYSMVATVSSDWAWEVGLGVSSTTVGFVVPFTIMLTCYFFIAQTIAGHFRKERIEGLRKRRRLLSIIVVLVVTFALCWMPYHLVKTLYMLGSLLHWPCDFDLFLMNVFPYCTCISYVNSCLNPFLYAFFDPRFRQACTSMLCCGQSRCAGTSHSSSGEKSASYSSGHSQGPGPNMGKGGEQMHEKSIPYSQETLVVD
The experiment is described as follows: FACS on HEK293/CRE-luc/MfAPLNR cells.

No end group written: not given here. Bounds are passed on as bounds.

As for QRPRLSHKGPMPFGGGGSGGGGSGGGGS-{VH of anti‑myc 9E10 antibody} (antibody, part only; not given: anti-myc antibody chains, part only, ends and bridges not checked) [Anti-myc 9E10 Nter VH fusion with (G4S)3 linker (Apelin fused to an irrelevant anti-myc antibody)], in experiment [1], the Binding Ratio of Geom. Mean to Unstained Cells came out at 12 fold. In experiment [2], this molecule had a % Activation at 100 nM mAb (7.5 uM Forskolin), CRE-luc of 53%; a % Activation at 100 nM mAb (10 uM Forskolin), CRE-luc of 37%; an EC50 [M] (7.5 uM Forskolin), CRE-luc of 1.1e-08 M; an EC50 [M] (10 uM Forskolin), CRE-luc greater than 1e-07 M. In experiment [3], the % Activation at 500 nM antibody or Apelin-antibody fusion, PathHunter beta-Arrestin assay came out at 6%. Moreover, the Binding Ratio of Geom. Mean to Unstained Cells in experiment [4] was 3 fold.
